Literature values as cited in paper PMC6293969.

How the values were obtained:
[1] = target: CLK1 (Homo sapiens) (UniProt P49759)
[2] = target: SRSF1 (Homo sapiens) (UniProt Q07955)
Sequence of UniProt Q07955 (Q07955 2-248): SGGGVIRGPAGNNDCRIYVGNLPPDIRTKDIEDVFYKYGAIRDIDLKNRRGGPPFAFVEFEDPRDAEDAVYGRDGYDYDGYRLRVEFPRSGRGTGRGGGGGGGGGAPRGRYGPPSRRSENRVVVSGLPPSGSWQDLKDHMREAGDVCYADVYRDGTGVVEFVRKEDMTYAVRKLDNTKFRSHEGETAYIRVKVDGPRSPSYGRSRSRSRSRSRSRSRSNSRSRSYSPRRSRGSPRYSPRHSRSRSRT

Sequence of UniProt P49759 (P49759 whole entry): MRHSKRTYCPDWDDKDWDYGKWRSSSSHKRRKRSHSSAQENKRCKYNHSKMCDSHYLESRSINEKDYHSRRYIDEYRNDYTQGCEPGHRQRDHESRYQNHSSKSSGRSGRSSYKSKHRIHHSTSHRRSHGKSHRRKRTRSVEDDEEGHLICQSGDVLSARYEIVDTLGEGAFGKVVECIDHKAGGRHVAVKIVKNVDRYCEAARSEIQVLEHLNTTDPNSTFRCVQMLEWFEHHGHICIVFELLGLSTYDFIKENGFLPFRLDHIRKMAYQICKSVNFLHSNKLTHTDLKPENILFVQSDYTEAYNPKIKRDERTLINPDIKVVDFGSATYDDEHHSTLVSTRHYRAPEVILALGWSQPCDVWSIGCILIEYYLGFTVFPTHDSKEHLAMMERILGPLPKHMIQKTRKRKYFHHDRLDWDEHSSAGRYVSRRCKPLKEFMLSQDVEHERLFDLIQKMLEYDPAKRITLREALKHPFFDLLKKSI

- Kd [1]: 20 nM
- Kd [2]: 100 nM
Substance: SRPK1 (from UniProt Q96SB4)
